From the supplement of paper PMC10567573

B1: MIA2 (parent)
chain: NSISSDKEATVPCTEILTEKKDTI

Variants of: B1
Assay: protein stability index of a GFP-peptide fusion (GPS, HEK-293T) (PSI 1-6); higher = more stable
Conditions: c terminus: a fixed tail appended
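Further: lentivirally expressed fusions sorted by FACS into six bins by GFP to DsRed ratio, PSI derived from sequencing read proportions per bin multiplied by bin number.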

Going from NSISSDKEATVPYTEILTEKKDTI to NSISSDKEATVPWTEILTEKKDTI, the protein stability index rises from 5.01 to 5.06.

Going from NSISSDKEATVPKTEILTEKKDTI to NSISSDKEATVPMTEILTEKKDTI, the protein stability index rises from 5.4 to 5.59.

Going from NSISSDKEATVPPTEILTEKKDTI to YSISSDKEATVPCTEILTEKKDTI, the protein stability index falls from 5.35 to 4.81.

First: MSISSDKEATVPCTEILTEKKDTI
Second: NSISSDKEATVPCTEILTEKKDTQ
The protein stability index of the first is lower: 5.33 for the first, 5.61 for the second.

Going from NSISSDKEATVPCTEILTEKKDTC to NSISSDKEATVPCTEILTEKKDTG, the protein stability index falls from 5.68 to 5.56.

Going from NSISSDKEATVPCTEILTEKKDTS to NSISSDKEATVTCTEILTEKKDTI, the protein stability index falls from 5.69 to 5.48.

Going from NSISSDKEATVACTEILTEKKDTI to NSISSDKEATVSCTEILTEKKDTI, the protein stability index rises from 5.49 to 5.63.

First: NSISSDKEATVLCTEILTEKKDTI
Second: NSISSDKEATVGCTEILTEKKDTI
The protein stability index of the first is lower: 4.54 for the first, 5.53 for the second.

Going from NSISSDKEATVKCTEILTEKKDTI to NSISSDKEATVWCTEILTEKKDTI, the protein stability index falls from 5.47 to 4.58.

Going from NSISSDKEATVDCTEILTEKKDTI to NSISSDKEATWPCTEILTEKKDTI, the protein stability index falls from 5.53 to 5.22.

Compared with NSISSDKEATPPCTEILTEKKDTI, NSISSDKEATMPCTEILTEKKDTI is higher in protein stability index: 5.55 for the first, 5.59 for the second.

First: NSISSDKEATHPCTEILTEKKDTI
Second: NSISSDKEATVPCTEILTPKKDTI
The protein stability index of the first is lower: 4.62 for the first, 5.66 for the second.

Compared with NSISSDKEATVPCTEILTKKKDTI, NSISSDKEATVPCTEILTDKKDTI is higher in protein stability index: 4.93 for the first, 5.46 for the second.

Going from NSISSDKEATVPCTEILTVKKDTI to NSISSDKEATVPCTEIDTEKKDTI, the protein stability index rises from 5.18 to 5.46.

Compared with NSISSDKEATVPCTEIMTEKKDTI, NSISSDKEATVPCTEIKTEKKDTI is higher in protein stability index: 5.28 for the first, 5.46 for the second.

First: NSISSDKEATVPCTEIWTEKKDTI
Second: NSISSDKEATVPCTEIQTEKKDTI
The protein stability index of the first is lower: 4.52 for the first, 5.4 for the second.

Compared with NSISSDKEATVPCTEIFTEKKDTI, NSISSDKEATVPCTEILTESKDTI is higher in protein stability index: 5.29 for the first, 5.54 for the second.

Compared with NSISSDKEATVPCTEILTEMKDTI, NSISSDKEATVPCTEILTEIKDTI is lower in protein stability index: 5.35 for the first, 5.15 for the second.

Going from NSISSDKEATVPCTEILLEKKDTI to NSISSDKEATVPCTEILREKKDTI, the protein stability index falls from 5.11 to 5.1.

Going from NSISSDKEATVPCTEILGEKKDTI to NSISSDKEATVPCTEILHEKKDTI, the protein stability index falls from 5.43 to 5.35.

Going from NSISSDKEATVPCAEILTEKKDTI to NSISSDKEATVPCPEILTEKKDTI, the protein stability index rises from 5.36 to 5.45.

First: NSISSDKEATVPCMEILTEKKDTI
Second: NSISSDKEATVPCHEILTEKKDTI
The protein stability index of the first is lower: 5.12 for the first, 5.45 for the second.

Going from NSISSDKEATVPCFEILTEKKDTI to NSISSDKEALVPCTEILTEKKDTI, the protein stability index rises from 4.93 to 5.43.

Compared with NSISSDKEADVPCTEILTEKKDTI, NSISSDKEAGVPCTEILTEKKDTI is lower in protein stability index: 5.61 for the first, 5.4 for the second.

NSISSDKEAHVPCTEILTEKKDTI and NSISSDKEAQVPCTEILTEKKDTI are the same in protein stability index: 5.48 for the first, 5.48 for the second.

First: NSKSSDKEATVPCTEILTEKKDTI
Second: NSVSSDKEATVPCTEILTEKKDTI
The protein stability index of the first is higher: 5.71 for the first, 5.45 for the second.

Compared with NSASSDKEATVPCTEILTEKKDTI, NSCSSDKEATVPCTEILTEKKDTI is lower in protein stability index: 5.61 for the first, 5.33 for the second.

Going from NSMSSDKEATVPCTEILTEKKDTI to NSISSDKEATVPCTEFLTEKKDTI, the protein stability index falls from 5.45 to 5.19.

Compared with NSISSDKEATVPCTELLTEKKDTI, NSISSDKEATVPCTEDLTEKKDTI is higher in protein stability index: 5.51 for the first, 5.81 for the second.

Going from NSISSDKEATVPCTEGLTEKKDTI to NSISSDKERTVPCTEILTEKKDTI, the protein stability index rises from 5.11 to 5.23.

Compared with NSISSDKEGTVPCTEILTEKKDTI, NSISSDKEVTVPCTEILTEKKDTI is lower in protein stability index: 5.42 for the first, 5.17 for the second.

First: NSISSDKEWTVPCTEILTEKKDTI
Second: NSISSDKECTVPCTEILTEKKDTI
The protein stability index of the first is higher: 4.79 for the first, 4.71 for the second.

First: NSISSDKEQTVPCTEILTEKKDTI
Second: NSISSDKESTVPCTEILTEKKDTI
The protein stability index of the first is lower: 5.25 for the first, 5.31 for the second.

Going from NSISSDKNATVPCTEILTEKKDTI to NSISSDKHATVPCTEILTEKKDTI, the protein stability index falls from 5.31 to 4.91.

Compared with NSISSDKAATVPCTEILTEKKDTI, NSISSDKTATVPCTEILTEKKDTI is higher in protein stability index: 5.07 for the first, 5.17 for the second.

Compared with NSISSDKEATVPCTYILTEKKDTI, NSISSDKEATVPCTIILTEKKDTI is lower in protein stability index: 4.68 for the first, 4.25 for the second.

Going from NSISSDKEATVPCTNILTEKKDTI to NSISSDKEATVPCTPILTEKKDTI, the protein stability index falls from 5.23 to 5.16.

Compared with NSISSDKEATVPCTWILTEKKDTI, NSISSDKEATVPCTTILTEKKDTI is higher in protein stability index: 4.13 for the first, 5.46 for the second.

Compared with NSISSNKEATVPCTEILTEKKDTI, NSISSPKEATVPCTEILTEKKDTI is lower in protein stability index: 5.42 for the first, 5.35 for the second.

Going from NSISSSKEATVPCTEILTEKKDTI to NSISSHKEATVPCTEILTEKKDTI, the protein stability index falls from 5.71 to 4.89.

Compared with NSISSDKEATVPCTEILTEKDDTI, NSISSDKEATVPCTEILTEKPDTI is lower in protein stability index: 5.72 for the first, 5.36 for the second.

First: NSISSDKEATVPCTEILTEKWDTI
Second: NSIESDKEATVPCTEILTEKKDTI
The protein stability index of the first is lower: 4.59 for the first, 5.68 for the second.

Going from NSIISDKEATVPCTEILTEKKDTI to NSIASDKEATVPCTEILTEKKDTI, the protein stability index rises from 4.68 to 5.41.

Compared with NSISSDKEATVPCTEILTEKKPTI, NSISSDKEATVPCTEILTEKKMTI is lower in protein stability index: 5.43 for the first, 4.62 for the second.

Going from NSISSDKEATVPCTEILTEKKITI to NSISSDKEATVPCTEILTEKKSTI, the protein stability index rises from 4.55 to 4.7.

First: NSISSDKEATVPCTEILTEKKETI
Second: NPISSDKEATVPCTEILTEKKDTI
The protein stability index of the first is higher: 5.6 for the first, 5.31 for the second.

Going from NDISSDKEATVPCTEILTEKKDTI to NAISSDKEATVPCTEILTEKKDTI, the protein stability index falls from 5.59 to 5.52.
